{"source": "patent CN112079918A", "about": "(CANVEST WUHAN BIOTECHNOLOGY CO LTD, dated 2020)", "binders": {"B1": {"name": "H7N9病毒特异性识别抗体P51C05 (IgG形式) (antibody, V domains shown)", "VH": "EVQLVQSGSELKKPGASVKVSCKASGYTFTSYTMNWVRQAPGQGLEWMGWINTNTGNPTYAQGFTGRFVFSLDTSVSTAYLQISSLKTEDTAVYYCARGVYGMDVWGQGTTVTVSS", "VL": "EIVLTQSPGTLSLSPGERATFSCRASQTVSNYLAWYQQKVGQAPRLLIYDASNRATGIPARFSGSGSGTDFTLTISSLEPEDFAVYYCQQRYNWPLTFGGGTKVEIKG"}}, "key": {"[1]": {"target": "SH02 HA (A/Shanghai/2/2013 H7N9) hemagglutinin protein (influenza A virus A/Shanghai/2/2013 (H7N9))", "test": "ELISA, P51C05 IgG on HA protein"}, "[2]": {"target": "17SF HA (A/Guangdong/17SF003/2016) hemagglutinin protein (influenza A virus A/Guangdong/17SF003/2016 (H7N9))", "test": "ELISA, P51C05 IgG on HA protein"}, "BSA": {"target": "BSA (UniProt P02769 25-607)", "sequence (P02769 25-607 limits assumed)": "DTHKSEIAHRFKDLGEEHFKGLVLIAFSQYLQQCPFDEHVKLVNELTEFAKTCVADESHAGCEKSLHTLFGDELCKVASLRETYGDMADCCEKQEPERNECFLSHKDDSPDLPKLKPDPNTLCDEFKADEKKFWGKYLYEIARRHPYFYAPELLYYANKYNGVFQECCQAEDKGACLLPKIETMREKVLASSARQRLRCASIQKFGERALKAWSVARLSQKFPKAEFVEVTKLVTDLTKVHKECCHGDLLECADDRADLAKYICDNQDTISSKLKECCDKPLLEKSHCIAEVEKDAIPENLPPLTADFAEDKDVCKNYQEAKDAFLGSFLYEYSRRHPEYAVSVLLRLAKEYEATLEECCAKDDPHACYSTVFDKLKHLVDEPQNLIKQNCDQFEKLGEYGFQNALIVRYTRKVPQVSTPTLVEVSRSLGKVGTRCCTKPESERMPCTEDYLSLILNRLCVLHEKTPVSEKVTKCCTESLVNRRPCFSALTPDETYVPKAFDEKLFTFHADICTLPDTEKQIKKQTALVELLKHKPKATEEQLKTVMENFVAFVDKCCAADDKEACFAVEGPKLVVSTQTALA", "test": "ELISA"}}}
{"binder": "B1", "values": [{"measurement": "EC50", "setting": "[1]", "value": "< 1", "unit": "nM"}, {"measurement": "EC50", "setting": "[2]", "value": "< 1", "unit": "nM"}, {"measurement": "binding result", "setting": "BSA", "value": "no binding"}]}
